Residue numbers refer to the chain shown, from its start. Names may count otherwise.

For assay [1], the target named is T1, Drosophila melanogaster histone H4 (D. melanogaster, UniProt P84040 1-103).
T1 construct: histone H4, D. melanogaster; Stood within the nucleosome; source: bought: The Histone Source (Colorado State University); in the reconstituted nucleosome
Description: cryo-EM structure; vPRC1:Nuc; Nuc/vPRC1 ratio of 1:10 in UB buffer, 1 h at 4 °C; biotinylated nucleosomes bound to streptavidin-coated grids. The note with it: both partners purified.

Assay [2] concerns the target T2, human RING1B, full length (human, UniProt Q99496 1-336).
T2 construct: In the cryo-EM sample a subunit of vPRC1; residues 15-115 were built; source: High Five insect cells (baculovirus), coexpressed with BMI1, purified; not shown: twin strep-tag, N-terminal, cleaved
T2 sequence (looked up): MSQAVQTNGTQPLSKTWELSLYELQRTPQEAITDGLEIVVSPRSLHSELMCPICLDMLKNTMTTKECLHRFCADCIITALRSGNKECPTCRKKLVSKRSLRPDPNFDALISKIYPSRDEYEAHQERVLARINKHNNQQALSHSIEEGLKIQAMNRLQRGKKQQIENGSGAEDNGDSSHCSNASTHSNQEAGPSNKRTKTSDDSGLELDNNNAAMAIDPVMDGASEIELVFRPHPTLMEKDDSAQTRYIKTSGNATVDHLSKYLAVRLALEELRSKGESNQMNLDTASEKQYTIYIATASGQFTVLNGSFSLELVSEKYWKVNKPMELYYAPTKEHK
Nature of the assay: SEC; RING1B and BMI1 coexpressed in insect cells from one vector, Ni-NTA (His tag on BMI1), tag cleavage, SEC (S200). The note with it: partners not purified. For orientation: In gel filtration, larger molecules generally elute earlier.

Assay [3] deals with T3, RING1B:BMI1 full-length heterodimer (human, UniProt Q99496 1-336; P35226 1-326).
T3 construct: also called RING1B:BMI1 dimer; source: High Five insect cells (baculovirus, coexpressed from one vector), purified (Ni-NTA, twin strep-tag cleavage, SEC); not shown: twin strep-tag, N-terminal, cleaved; His6, C-terminal, kept
T3 sequence (looked up) 1: T2 sequence (looked up)
T3 sequence (looked up) 2: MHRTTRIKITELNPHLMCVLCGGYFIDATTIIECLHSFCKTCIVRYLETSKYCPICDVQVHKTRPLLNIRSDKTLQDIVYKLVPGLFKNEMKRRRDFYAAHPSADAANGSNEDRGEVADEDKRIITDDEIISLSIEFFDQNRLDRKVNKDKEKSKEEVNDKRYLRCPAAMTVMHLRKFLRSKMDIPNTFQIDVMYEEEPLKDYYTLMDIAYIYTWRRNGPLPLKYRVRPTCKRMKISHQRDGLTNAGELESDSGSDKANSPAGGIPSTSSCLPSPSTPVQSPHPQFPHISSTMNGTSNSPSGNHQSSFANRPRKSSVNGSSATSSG
Description: SEC; purified RYBP mixed with purified RING1B:BMI1 at a 1:1 molar ratio, cation exchange, then SEC in 25 mM Tris-HCl pH 7, 150 mM NaCl, 10% glycerol, 2 mM DTT. As to conditions: both partners purified.

Assay [4] addresses T4, human ubiquitin (human, UniProt P0CG47 1-76, conjugated to H2A).
T4 construct: human ubiquitin, the cut product of the precursor; Stood as the ubiquitin moiety of H2Aub1 in the nucleosome; source: bought: Boston Biochem; conjugated to H2A of the nucleosome in vitro
Nature of the assay: cryo-EM structure; vPRC1:Nuc_(H2Aub1); Nuc_(H2Aub1)/vPRC1 ratio of 1:5 in UB buffer, 1 h at 4 °C; biotinylated nucleosomes bound to streptavidin-coated grids, two additional washes. As to conditions: both partners purified.

B1: human BMI1, full length (natural protein, UniProt P35226 1-326, looked up)
chain: T3 sequence (looked up) 2
notes: In the cryo-EM sample a subunit of vPRC1; residues 3-107 were built; also called BIM1; source: High Five insect cells (baculovirus), coexpressed with RING1B, purified; not shown: His6, C-terminal, kept
For the molecule B1, the binding result in assay [1] and in assay [2] was “binds” in each case.

B2: human RYBP, full length (natural protein, UniProt Q8N488 1-228, looked up)
chain: MTMGDKKSPTRPKRQAKPAADEGFWDCSVCTFRNSAEAFKCSICDVRKGTSTRKPRINSQLVAQQVAQQYATPPPPKKEKKEKVEKQDKEKPEKDKEISPSVTKKNTNKKTKPKSDILKDPPSEANSIQSANATTKTSETNHTSRPRLKNVDRSTAQQLAVTVGNVTVIITDFKEKTRSSSTSSSTVTSSAGSEQQNQSSSGSESTDKGSSRSSTPKGDMSAVNDESF
notes: In the cryo-EM sample it stood as a subunit of vPRC1; residues 23-58 were built; source: High Five insect cells (baculovirus), purified (Ni-NTA, His tag cleavage, reverse Ni-NTA); not shown: His6, N-terminal, cleaved
As to B2, the binding result in assay [3] and in assay [4] was “binds” each time.

B3: RYBP_(T31A/F32A) (natural protein, human, UniProt Q8N488 1-228, looked up)
chain: B2 chain with T31A, F32A
notes: source: High Five insect cells (baculovirus), purified following the same procedure as the wild-type protein; not shown: His6, N-terminal, cleaved
On to B3, for which the binding result in assay [3] is “binds”.

B4: RYBP_(R47A/R53A/R56A) (natural protein, human, UniProt Q8N488 1-228, looked up)
chain: B2 chain with R47A, R53A, R56A
notes: as for B3
For B4, in assay [3], the binding result is “binds”.

The values above are taken from PMC11257959, “Structural basis of the histone ubiquitination read–write mechanism of RYBP–PRC1” (Nature Structural & Molecular Biology, 2024).
